# From the supplement of paper PMC10724198
# ± gives the standard deviation of the averaged measurements.
# Test system: Saccharomyces cerevisiae
# Assay: protein stability index of tFT-peptide fusion (C-terminal peptide) (PSI (0-1 scale)); higher = more stable (slower turnover)
# Conditions: genetic background: wild type; temperature: 30 C
# 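Note: PSI is a weighted mean of sequencing reads over stability bins, variants kept only with over 10 reads, mCherry proximal and sfGFP distal, peptide attached via GGGS linker.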
row,Sequence,protein stability index
1,VPRLARTRPKHA,0.641 ± 0.042
2,RTSKSCVEFTMG,0.661 ± 0.011
3,SPSGLPPPLTYP,0.667 ± 0.034
4,KRKKNTRENGED,0.778 ± 0.022
5,HRQAFSAVPCIH,0.588 ± 0.042
6,PDCQSIIRLTTG,0.752 ± 0.098
7,AARRRLFSPCSP,0.626 ± 0.1
8,CRQCKGTDGDDQ,0.673 ± 0.04
9,PPPLTSPPHPPP,0.724 ± 0.029
10,QQLPPARLPRRP,0.745 ± 0.012
11,LRLFCVLARSVV,0.528 ± 0.018
12,QLLCMSEPFVRE,0.699 ± 0.057
13,PLHPDSCGSLSS,0.647 ± 0.038
14,HYFRSIFLFVVR,0.506 ± 0.017
15,SMSSERYIKRGN,0.702 ± 0.011
16,KPCGRAEERRSG,0.674 ± 0.035
17,SWGLSVSSCFVW,0.578 ± 0.0066
18,GCLWRGARALGP,0.687 ± 0.075
19,FTTAGSGWESVW,0.636 ± 0.041
20,HVHLHSTTAPPP,0.695 ± 0.015
21,GPEVRPTLTHNE,0.623 ± 0.018
22,SLIFVSLLGAYD,0.623 ± 0.056
23,RAILTVVRGHLE,0.668 ± 0.0086
24,GGCRRGVQLFWD,0.7236 ± 0.0023
25,RILLSPLSQSQP,0.695 ± 0.025
26,VRGSLFGICSAL,0.705 ± 0.06

row,Sequence,protein stability index
1,ILSSPGLLLFRL,0.5449 ± 0.005
2,WWAGGCGGERGG,0.686 ± 0.018
3,LNYRVLTKVDER,0.717 ± 0.048
4,YHMNSSLLCLLW,0.631 ± 0.032
5,LQCGDWVETTGS,0.709 ± 0.031
6,LLRLDGGAGRSV,0.627 ± 0.079
7,CVGILGAVKSGM,0.71 ± 0.098
8,ESGRGGVGVGWG,0.709 ± 0.096
9,AHNRQRPEPDAR,0.636 ± 0.031
10,PSRRAPQSRPSQ,0.733 ± 0.098
11,EGLTYIPCQTDC,0.812 ± 0.028
12,KKTERRNKKKIR,0.695 ± 0.031
13,LTYLLFPSSLQA,0.677 ± 0.04
14,ILRPAPVFPLDP,0.689 ± 0.0089
15,PLEYPAQATMKP,0.657 ± 0.021
16,WVSSRSSVVARG,0.653 ± 0.043
17,KNNKNQKELDTK,0.677 ± 0.065
18,LVCLFRGCGLRD,0.714 ± 0.0084
19,PLSTGLPFPRSP,0.718 ± 0.028
20,KKEQRKKRQQKT,0.6958 ± 0.0066
21,MQNDKCWVCNQR,0.693 ± 0.029
22,NPCPSVLCSNCD,0.67 ± 0.064
23,LAPASPTHPHPP,0.679 ± 0.0087
24,VEHQVNMGDGEM,0.63525 ± 3.1e-05
25,VCAVAQPCRVQL,0.683 ± 0.025
26,VSEVDVRGKGIR,0.783 ± 0.068

row,Sequence,protein stability index
1,SFPPLCLSFPVF,0.65 ± 0.02
2,GVGGGSSWVGYG,0.912 ± 0.063
3,RSHPTPQAHPSA,0.728 ± 0.051
4,SRPPPFFPPASP,0.682 ± 0.01
5,SASPLRPPFLLL,0.635 ± 0.09
6,PSSCLPAHLRPP,0.605 ± 0.013
7,WGTGGRLGVGHV,0.697 ± 0.056
8,RGPFSGKCEPSM,0.663 ± 0.049
9,STSYLKLKYSIY,0.498 ± 0.038
10,RIPTALLAPYAQ,0.649 ± 0.03
11,PPPSPCHPPSPP,0.67 ± 0.12
12,HPPSPPSRVSPS,0.594 ± 0.032
13,LMWPTSHLPQPQ,0.734 ± 0.092
14,HQLSQYEGARTL,0.733 ± 0.064
15,RSPPPVPELTRL,0.7042 ± 0.0051
16,PPPSVPPSLTPP,0.693 ± 0.03
17,QGGGGGGRSGWR,0.6854 ± 0.0061
18,PHSPLSPAPQSP,0.787 ± 0.02
19,DVFCRPRCFRRG,0.686 ± 0.041
20,VNAGAPGVLAWV,0.739 ± 0.021
21,LVFGRGCGWLSG,0.664 ± 0.0071
22,ALDACLYLSSGL,0.637 ± 0.0097
23,NNSCPQGHPDAR,0.7574 ± 0.0065
24,KVWGPAVPAVPP,0.666 ± 0.065
25,LYTSPLPAAFQL,0.726 ± 0.038
26,PPPPLPPPSPPL,0.7319 ± 0.0043

row,Sequence,protein stability index
1,LVGGGDRPGLGR,0.66 ± 0.0079
2,PPPSSPTPPHSR,0.738 ± 0.082
3,LIKATAYRTNRQ,0.745 ± 0.044
4,PNYQRRTKTNSP,0.703 ± 0.04
5,RESIEGGGAPRD,0.747 ± 0.11
6,CGEGVCVTGWSR,0.68 ± 0.028
7,GGRGRRAGGSSG,0.745 ± 0.016
8,NKTKIKKKKKRG,0.657 ± 0.013
9,RTSEAGKQHEWK,0.695 ± 0.0074
10,GKFKKRIRRGIK,0.695 ± 0.011
11,VSKLTRHLWANQ,0.61 ± 0.094
12,PHVCPVLSAAGR,0.629 ± 0.044
13,HDGPYPALLATK,0.606 ± 0.069
14,KNPSLSSPLPHP,0.6908 ± 0.0041
15,WGVSGAGPHLLL,0.74 ± 0.038
16,GGGGMASRGGNK,0.685 ± 0.027
17,KKKKMKKNKERK,0.708 ± 0.049
18,HDAKIGTSTCWV,0.654 ± 0.024
19,LSGYIFFSFRSF,0.505 ± 0.01
20,NESSYGNEKNLG,0.723 ± 0.021
21,SHTLIRRGTHFP,0.683 ± 0.0094
22,REHLSERVPSRA,0.749 ± 0.057
23,PRSSSRAGRTGT,0.712 ± 0.031
24,IVTGMGVVHIWR,0.698 ± 0.04
25,MTSSYLCWDVIG,0.632 ± 0.071
26,VLPLRPGRKLSG,0.664 ± 0.054

row,Sequence,protein stability index
1,SFTYVFFSLSRR,0.663 ± 0.019
2,GSPMRKHVTLLP,0.808 ± 0.12
3,LLHYPHVPLSPI,0.662 ± 0.021
4,VRGDRRHRGVWG,0.709 ± 0.066
5,HRWSRGIDATGV,0.665 ± 0.083
6,FVLRCLGLVLPV,0.593 ± 0.077
7,PPAGCSPSPRSP,0.66 ± 0.056
8,YPPPPPLAPPRP,0.747 ± 0.14
9,VPITLRFSFLTP,0.598 ± 0.073
10,PPLPAPSPPAPP,0.68 ± 0.022
11,KEREGSRKETKH,0.694 ± 0.01
12,TRSAFPSFPTRS,0.68 ± 0.02
13,GAENPRRLRART,0.691 ± 0.0079
14,ATSSNFGVWVHV,0.69 ± 0.048
15,KKKKKKKKKKKN,0.595 ± 0.034
16,SPLLSSPSPFSL,0.751 ± 0.095
17,LSSSLLSLLYNF,0.534 ± 0.039
18,PVRLGAGGGCRP,0.693 ± 0.02
19,KKKKKTNKDKGQ,0.66 ± 0.067
20,PAVSRPPLPSVH,0.7 ± 0.089
21,PRPSRILPLPAP,0.65 ± 0.0072
22,PPLPPLSPAPPR,0.681 ± 0.0073
23,SSSTPGRATRVS,0.652 ± 0.034
24,IADLGDLTKVTL,0.693 ± 0.019
25,PPSRDRSGCISV,0.709 ± 0.021
26,PLLPRLPPLSPP,0.691 ± 0.07

row,Sequence,protein stability index
1,EKSGKDKRKNEI,0.723 ± 0.062
2,PPPSPPSVPRAS,0.643 ± 0.027
3,KTTERRQTKSRV,0.688 ± 0.085
4,LRHGLASYDHCG,0.681 ± 0.02
5,LFLFPPVLTFPL,0.625 ± 0.035
6,SPKGRVISRRQP,0.602 ± 0.034
7,GFGWYVPESWSS,0.616 ± 0.043
8,CRGPRASRRRGR,0.629 ± 0.04
9,GSFLGTSFKSEY,0.666 ± 0.029
10,LEFFPSSRFFGF,0.773 ± 0.026
11,TLRLPLHLLRPT,0.642 ± 0.021
12,RREKRPMKKGGR,0.6126 ± 0.002
13,LGWRLFNDVRRG,0.707 ± 0.013
14,VFPSLCITSVCT,0.53 ± 0.02
15,SERERYKKNEKV,0.643 ± 0.0017
16,PCFSCPPLFLRT,0.631 ± 0.067
17,AVYSDCARNITW,0.714 ± 0.047
18,EVRWIGLPMCTS,0.6524 ± 0.0023
19,NSFTYWYGGCIL,0.802 ± 0.28
20,GGGVSFWVGVVA,0.656 ± 0.042
21,PPPPPLPALPLL,0.84 ± 0.081
22,LGSITDRLLRRR,0.772 ± 0.14
23,RRFQYLTENYQK,0.6208 ± 0.0047
24,RCGVAGVVCGSG,0.615 ± 0.039
25,PPSRLSPPPPPS,0.71 ± 0.016
26,RMINHGNKAKFS,0.662 ± 0.016

row,Sequence,protein stability index
1,QGSWLRSVNLEY,0.617 ± 0.092
2,KKLELLNRDRKV,0.641 ± 0.042
3,YGRANATHLGRR,0.661 ± 0.005
4,AISPAPRVSPTP,0.786 ± 0.052
5,FVLGGLHAGYVL,0.7146 ± 0.0038
6,STIIYFLTYSDK,0.634 ± 0.063
7,AVSRSLTGVRFL,0.697 ± 0.025
8,KKICLEWMLLQS,0.7011 ± 0.0067
9,PAPSPPPPRPLP,0.716 ± 0.1
10,RAPFLSRACCSR,0.648 ± 0.013
11,RSSRGGFAFVYR,0.676 ± 0.03
12,SFPLLFPVSSRL,0.8641 ± 0.0077
13,RLCLLVVPLLPP,0.665 ± 0.055
14,YWVPPDTIKSAI,0.7362 ± 0.0032
15,GRFRQTVTGEGW,0.669 ± 0.087
16,SLAYPPPSPPPA,0.68 ± 0.054
17,NVVFGCFFPVLT,0.684 ± 0.04
18,GSRFCPHVGICI,0.657 ± 0.019
19,SPPPALLPPLFP,0.73 ± 0.064
20,LGFDRGGGGAGM,0.675 ± 0.062
21,GGPRDNEGSWWV,0.7122 ± 0.0029
22,SYGSLFCSHLDG,0.6828 ± 0.0014
23,SHVVRHVSTVEK,0.7 ± 0.023
24,KPLDPNRHVIPG,0.652 ± 0.021
25,PSPFPLPLSFAR,0.538 ± 0.047
26,RAVHSSPHVSLS,0.681 ± 0.013

row,Sequence,protein stability index
1,VYLRSMLSLNIR,0.676 ± 0.051
2,GLHVPLTGFCFC,0.63 ± 0.02
3,GLRLFAPRWPQA,0.713 ± 0.058
4,RRPCTSSHAKAP,0.692 ± 0.021
5,GRGAGQAGKKKI,0.631 ± 0.0073
6,RWSYCLVFSLGL,0.532 ± 0.015
7,CPGNRQEMLKSR,0.676 ± 0.0083
8,YGCPSSSSVLDG,0.812 ± 0.11
9,PFFPSQFFLFFS,0.6477 ± 0.0048
10,VSAPRPPPAPSP,0.786 ± 0.1
11,NGGGMPDRVVSI,0.722 ± 0.024
12,SGGGAGKRVCEG,0.704 ± 0.015
13,AYTWVMTGAWLL,0.586 ± 0.015
14,PPPPPHVHPPSP,0.689 ± 0.042
15,PRPRTPPPLLSF,0.687 ± 0.057
16,LYPRPSRFPPLL,0.732 ± 0.087
17,EQSLRHKCRPSV,0.596 ± 0.014
18,GPGPRAASADCP,0.728 ± 0.08
19,GHSLARHRHRGS,0.701 ± 0.0095
20,PSCFNAPRHPPT,0.749 ± 0.076
